According to paper PMC7282817:

molecular target: Spen RRM2-4 RRM3 Mt ((SHARP named as human homolog for the pET28a constructs; gene listed as mouse NM_019763.2)) (UniProt Q96T58); test: fluorescence anisotropy; conditions: pH 8.3; FA: 45 mM KCl, 5 mM NaCl, 50 mM Tris pH 7.5 (WT) or 8.3 (RRM3 Mt), 5% glycerol, RNA 1-3 nM, room temperature 40-60 min; competition EMSA: 50 mM Tris pH 7.5 …
Chain of UniProt Q96T58 (Q96T58 whole entry): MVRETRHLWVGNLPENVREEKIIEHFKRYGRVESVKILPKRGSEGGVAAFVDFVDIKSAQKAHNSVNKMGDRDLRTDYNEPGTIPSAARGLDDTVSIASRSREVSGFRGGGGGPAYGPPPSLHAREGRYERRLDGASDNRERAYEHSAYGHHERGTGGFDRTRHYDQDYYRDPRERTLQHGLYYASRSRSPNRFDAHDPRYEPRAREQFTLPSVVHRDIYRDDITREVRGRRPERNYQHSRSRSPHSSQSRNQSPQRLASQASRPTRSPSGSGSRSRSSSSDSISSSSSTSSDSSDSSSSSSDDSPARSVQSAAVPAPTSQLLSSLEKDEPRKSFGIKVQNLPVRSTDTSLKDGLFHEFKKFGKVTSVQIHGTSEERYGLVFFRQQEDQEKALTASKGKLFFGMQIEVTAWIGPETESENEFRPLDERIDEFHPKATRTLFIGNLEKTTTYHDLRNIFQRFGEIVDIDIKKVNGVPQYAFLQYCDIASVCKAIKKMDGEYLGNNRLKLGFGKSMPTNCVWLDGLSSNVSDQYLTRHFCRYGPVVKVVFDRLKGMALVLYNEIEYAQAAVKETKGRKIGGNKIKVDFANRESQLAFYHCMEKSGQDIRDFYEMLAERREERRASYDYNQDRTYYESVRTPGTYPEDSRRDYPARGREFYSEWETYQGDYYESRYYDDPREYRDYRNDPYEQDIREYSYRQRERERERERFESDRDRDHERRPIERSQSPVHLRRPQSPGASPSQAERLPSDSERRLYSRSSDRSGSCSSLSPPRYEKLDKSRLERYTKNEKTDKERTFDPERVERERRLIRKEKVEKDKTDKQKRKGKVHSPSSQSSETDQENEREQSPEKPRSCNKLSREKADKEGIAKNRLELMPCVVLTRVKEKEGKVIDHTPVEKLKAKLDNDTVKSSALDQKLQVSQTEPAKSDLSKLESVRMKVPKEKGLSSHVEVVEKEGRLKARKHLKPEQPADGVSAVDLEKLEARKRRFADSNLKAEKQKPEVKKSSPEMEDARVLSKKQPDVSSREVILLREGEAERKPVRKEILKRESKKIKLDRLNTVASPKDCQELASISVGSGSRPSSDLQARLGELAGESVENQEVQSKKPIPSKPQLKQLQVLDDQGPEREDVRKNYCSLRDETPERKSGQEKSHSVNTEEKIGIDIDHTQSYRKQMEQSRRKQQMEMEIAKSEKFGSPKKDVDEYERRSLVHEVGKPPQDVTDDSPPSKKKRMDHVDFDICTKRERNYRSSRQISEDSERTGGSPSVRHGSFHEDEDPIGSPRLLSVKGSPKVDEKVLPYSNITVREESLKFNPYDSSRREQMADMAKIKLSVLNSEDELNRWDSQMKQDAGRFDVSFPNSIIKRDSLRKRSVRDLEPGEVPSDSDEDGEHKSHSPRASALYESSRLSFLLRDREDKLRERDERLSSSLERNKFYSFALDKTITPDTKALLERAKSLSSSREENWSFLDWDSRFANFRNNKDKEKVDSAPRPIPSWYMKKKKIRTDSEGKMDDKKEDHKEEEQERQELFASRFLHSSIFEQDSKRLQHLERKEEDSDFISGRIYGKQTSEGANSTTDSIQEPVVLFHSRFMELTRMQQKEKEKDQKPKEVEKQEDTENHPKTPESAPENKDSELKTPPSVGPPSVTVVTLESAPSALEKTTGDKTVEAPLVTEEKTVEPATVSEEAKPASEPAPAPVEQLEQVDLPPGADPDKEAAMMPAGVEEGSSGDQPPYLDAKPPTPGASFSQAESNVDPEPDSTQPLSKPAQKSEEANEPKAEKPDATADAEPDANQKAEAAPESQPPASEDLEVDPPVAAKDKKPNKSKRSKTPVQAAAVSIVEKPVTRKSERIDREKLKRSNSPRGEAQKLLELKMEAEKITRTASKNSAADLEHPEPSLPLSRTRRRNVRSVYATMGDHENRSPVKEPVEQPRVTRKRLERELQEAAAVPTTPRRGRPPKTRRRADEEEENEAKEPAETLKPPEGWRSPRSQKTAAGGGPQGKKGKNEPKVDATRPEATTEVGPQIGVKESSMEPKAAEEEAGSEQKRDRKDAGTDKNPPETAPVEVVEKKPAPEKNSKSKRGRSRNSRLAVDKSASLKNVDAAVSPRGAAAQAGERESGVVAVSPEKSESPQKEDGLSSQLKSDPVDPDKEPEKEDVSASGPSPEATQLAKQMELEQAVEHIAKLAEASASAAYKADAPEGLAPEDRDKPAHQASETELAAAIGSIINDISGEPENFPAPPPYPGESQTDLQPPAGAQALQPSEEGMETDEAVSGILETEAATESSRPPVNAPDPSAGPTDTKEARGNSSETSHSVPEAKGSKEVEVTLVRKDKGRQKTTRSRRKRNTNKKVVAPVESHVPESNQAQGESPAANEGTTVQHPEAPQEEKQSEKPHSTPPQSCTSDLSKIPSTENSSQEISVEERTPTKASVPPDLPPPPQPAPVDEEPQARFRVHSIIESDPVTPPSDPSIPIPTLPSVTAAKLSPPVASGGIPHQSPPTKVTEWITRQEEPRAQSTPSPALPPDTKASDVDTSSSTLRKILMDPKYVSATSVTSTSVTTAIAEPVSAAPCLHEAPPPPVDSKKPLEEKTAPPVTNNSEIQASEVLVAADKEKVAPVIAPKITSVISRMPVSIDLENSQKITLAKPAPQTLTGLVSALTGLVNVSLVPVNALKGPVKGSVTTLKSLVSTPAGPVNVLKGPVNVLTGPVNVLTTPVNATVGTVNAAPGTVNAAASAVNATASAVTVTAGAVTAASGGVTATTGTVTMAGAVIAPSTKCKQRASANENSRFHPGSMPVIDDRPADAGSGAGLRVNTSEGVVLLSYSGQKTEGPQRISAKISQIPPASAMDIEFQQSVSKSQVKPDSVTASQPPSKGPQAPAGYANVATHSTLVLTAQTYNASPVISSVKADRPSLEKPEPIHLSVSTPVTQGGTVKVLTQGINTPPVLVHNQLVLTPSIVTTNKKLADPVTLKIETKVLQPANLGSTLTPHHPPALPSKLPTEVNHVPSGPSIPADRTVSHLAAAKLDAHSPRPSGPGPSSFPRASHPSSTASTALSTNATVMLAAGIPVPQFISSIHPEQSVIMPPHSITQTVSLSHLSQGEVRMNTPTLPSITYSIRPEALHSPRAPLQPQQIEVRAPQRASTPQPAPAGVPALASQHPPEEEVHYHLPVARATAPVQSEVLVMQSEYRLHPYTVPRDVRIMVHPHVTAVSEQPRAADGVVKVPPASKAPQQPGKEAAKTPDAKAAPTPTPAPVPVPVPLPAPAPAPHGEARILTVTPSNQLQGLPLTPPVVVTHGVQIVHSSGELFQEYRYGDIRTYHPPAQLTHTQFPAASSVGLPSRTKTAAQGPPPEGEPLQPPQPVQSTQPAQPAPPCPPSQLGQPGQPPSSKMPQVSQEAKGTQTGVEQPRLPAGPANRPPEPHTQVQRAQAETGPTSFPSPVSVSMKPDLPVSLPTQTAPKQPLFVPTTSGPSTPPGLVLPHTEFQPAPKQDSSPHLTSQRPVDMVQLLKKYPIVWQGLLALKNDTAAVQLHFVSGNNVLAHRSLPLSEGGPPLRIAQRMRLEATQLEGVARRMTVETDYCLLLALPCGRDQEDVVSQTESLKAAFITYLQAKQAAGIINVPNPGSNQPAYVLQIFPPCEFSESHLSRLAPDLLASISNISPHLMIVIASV

Binding signal (affinity relative to RRM2-4), 0.5:
GAUCAGAGUAACUGUCUUGGCUACAUUCUUUUCUCUCGCCACCUAGCCCCUCUUCUCUUCCAGGUUUCCAAAAUGCCUUUCCAGGCUAGAACCCAGGUUGUGGUCUGCUGG [ERV 302 (111 nt)], GAAAUUUCUCUCUGGGCCUUAUAGCAGGAGUACUCUGUUCCCUUUUGUGUCUUGUCUAAUGUCCGGUGCACCAAUCUGUUCUCGUGUUCAAUUCAUGUAUGUUCGUGUCCAGU [ERV 495 (113 nt)], GAUUCCAGGCAGAACUGUUGAGCAUAGAUAAUUUUCCCCCCUCAGGCCAGCUUUUUCUUUUUUUAAAUUUUGUUAAUAAAAGGGAG [ERV 205 (86 nt)], GGAACUCGUUCCUUCUCCUUAGCCCAUCGGGGCCAUGGAUACCUGCUUUUAACCUUUCUCGGUCCAUCGGGACCUCGGAUACCUG [Xist A-repeat (85 nt)], GGUUAAAACUGCUAUUGUUCCAUUGACUGCAGCUUGCAGUUUGAUUUCAAAUUUAAGAUCUUUAAUUCACCUGUAUACUGUAAUUAAGAUAAUUACAAGAGUAAUCAUCUUAUG [ERV 509 (114 nt)], GGUACCUUAAAUCCUUGCUCUCACCCAAAAGAUUCAGAGACAAUAUCCUUUUAUUACUUAGGGUUUUAGUUUACUACAAAAGUUUCUACAAAAAAUAAAGCUUUUAUAA [ERV 411 (109 nt)]
